Data as given in the supplement of paper PMC6757056.
± gives the standard deviation of the averaged measurements.

B1: library; a variant is named by its letters at N, in order (parent)
chain: GCUGUCACCGGUGUAUUACCCUAGUGGUCGACCGGUCUGAUGAGUCUNNNNNNAGACGAAACAGC

Tests used:
[1] = variants of: B1; assay: FACS-Seq fitted mean relative fluorescence mCherry/BFP without ligand (log10 relative fluorescence); ligand: hypoxanthine (xanthine aptamer); higher = higher reporter protein expression; details: HEK293T, ligand present: no
How it was run: (§1)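 Enriched HEK293T cells carrying, by lentivirus, an mCherry reporter with the ribozyme switch and an EF1α-BFP marker spent 48 h with or without ligand and were sorted into 6 bins by mCherry/BFP. MiSeq sequencing of PCR-amplified bin genomic DNA gave bin counts. Fluorescence was calculated as the fitted normal mean of those counts. Counts were binned on log10(mCherry/BFP), and means were scaled to five spiked-in control ribozymes.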

[2] = variants of: B1; assay: normalized RNA/DNA level with ligand (relative to sTRSVctl = 100) (log10 (% of sTRSVctl)); ligand: hypoxanthine (xanthine aptamer); higher = less ribozyme self-cleavage, higher mRNA level; details: ligand concentration (+) RNA-Seq: 5 mM, HEK293T, reporter: mCherry (pCS4076), ligand present: yes
How it was run: (§2)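 Only sequences with at least 100 DNA reads were analyzed, from HEK293T cells transfected with 4 µg per 6-well well of ribozyme switch library plasmids 72 h before RNA extraction with EDTA. Any ligand was added 1 h before transfection. RNA level was defined as RNA over DNA reads, normalized to a spiked-in non-cleaving sequence or to the top sequences, then scaled and log-transformed. The top set was 25 sequences, and the scaling was ×100 followed by log10.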

[3] = variants of: B1; assay: normalized RNA/DNA level without ligand (relative to sTRSVctl = 100) (log10 (% of sTRSVctl)); ligand: hypoxanthine (xanthine aptamer); higher = less ribozyme self-cleavage, higher mRNA level; details: HEK293T, reporter: mCherry (pCS4076), ligand present: no
How it was run: as §2

[4] = variants of: B1; assay: FACS-Seq fitted mean relative fluorescence mCherry/BFP with ligand (log10 relative fluorescence); ligand: hypoxanthine (xanthine aptamer); ligand concentration (+) FACS-Seq: 5 mM; higher = higher reporter protein expression; details: HEK293T, ligand present: yes
How it was run: as §1

Variant	FACS-Seq fitted mean (log10) [1]	normalized RNA/DNA level with ligand (log10) [2]	normalized RNA/DNA level without ligand (log10) [3]	FACS-Seq fitted mean (log10) [4]
AGACCC	0.552 ± 0.035	1.94 ± 0.0097	1.92 ± 0.02	0.516 ± 0.11
GGACCG	0.219 ± 0.056	1.97 ± 0.03	1.79 ± 0.0033	0.447 ± 0.027
GGACGA	0.478 ± 0.053	1.904 ± 0.015	1.64 ± 0.031	0.693 ± 0.025
UGACGA	0.285 ± 0.037	1.94 ± 0.023	1.581 ± 0.0051	0.593 ± 0.023
AGACGA	0.525 ± 0.066	1.95 ± 0.049	1.62 ± 0.025	0.546 ± 0.049
CGACGC	-0.246 ± 0.0073	1.919 ± 0.0071	1.87 ± 0.019	-0.157 ± 0.067
CGACGG	0.267 ± 0.083	1.83 ± 0.035	1.413 ± 0.0057	0.596 ± 0.078
GGACGG	0.346 ± 0.049	1.81 ± 0.035	1.42 ± 0.016	0.584 ± 0.054
UGACGG	0.484 ± 0.018	1.9 ± 0.022	1.486 ± 0.01	0.646 ± 0.032
AGACGG	0.689 ± 0.072	1.81 ± 0.044	1.3085 ± 0.0012	0.834 ± 0.073
UGACGU	-0.0405 ± 0.16	1.91 ± 0.021	1.57 ± 0.064	0.226 ± 0.05
AGACGU	0.722 ± 0.019	1.9 ± 0.043	1.59 ± 0.03	0.696 ± 0.067
UGACUA	0.629 ± 0.091	1.953 ± 0.017	1.86 ± 0.029	0.141 ± 0.079
UGACUC	0.621 ± 0.043	2.01 ± 0.036	1.97 ± 0.033	0.678 ± 0.044
AGACUC	0.486 ± 0.012	1.944 ± 0.016	1.94 ± 0.034	0.646 ± 0.01
GGACUG	0.544 ± 0.086	1.888 ± 0.012	1.58 ± 0.041	0.601 ± 0.1
AGACUU	0.58 ± 0.039	1.946 ± 0.008	1.9 ± 0.021	0.5558 ± 0.0047
CGAGAA	0.492 ± 0.014	1.907 ± 0.0062	1.58 ± 0.0075	0.65 ± 0.015
GGAGAA	0.538 ± 0.019	1.92 ± 0.022	1.68 ± 0.053	0.643 ± 0.034
UGAGAA	0.552 ± 0.021	1.86 ± 0.019	1.74 ± 0.018	0.638 ± 0.083
AGAGAA	0.479 ± 0.04	1.882 ± 0.0051	1.69 ± 0.047	0.467 ± 0.0095
GGAGAC	-0.358 ± 0.15	1.86 ± 0.066	1.75 ± 0.086	0.13 ± 0.024
CGAGAG	0.304 ± 0.055	1.9 ± 0.078	1.71 ± 0.032	0.258 ± 0.014
GGAGAG	0.274 ± 0.052	1.81 ± 0.058	1.3 ± 0.017	0.507 ± 0.023

Variant	FACS-Seq fitted mean (log10) [1]	normalized RNA/DNA level with ligand (log10) [2]	normalized RNA/DNA level without ligand (log10) [3]	FACS-Seq fitted mean (log10) [4]
UGAGAG	0.372 ± 0.012	1.87 ± 0.03	1.67 ± 0.04	0.364 ± 0.023
AGAGAG	0.482 ± 0.014	1.75 ± 0.036	1.32 ± 0.069	0.443 ± 0.038
UGAGAU	0.648 ± 0.051	1.887 ± 0.017	1.713 ± 0.0063	0.743 ± 0.033
AGAGAU	0.123 ± 0.09	1.85 ± 0.052	1.731 ± 0.0098	-0.481 ± 0.049
CGAGCA	0.378 ± 0.011	1.942 ± 0.0082	1.716 ± 0.012	0.543 ± 0.087
GGAGCA	0.654 ± 0.037	1.946 ± 0.0077	1.783 ± 0.0088	0.686 ± 0.1
UGAGCC	0.846 ± 0.017	2.003 ± 0.02	1.94 ± 0.051	0.805 ± 0.11
GGAGCG	0.171 ± 0.034	1.93 ± 0.043	1.49 ± 0.04	0.456 ± 0.023
UGAGCG	0.3069 ± 0.0029	1.9 ± 0.049	1.7 ± 0.043	0.323 ± 0.026
AGAGCG	0.488 ± 0.026	1.81 ± 0.024	1.401 ± 0.002	0.431 ± 0.067
GGAGCU	0.211 ± 0.041	1.956 ± 0.0072	1.96 ± 0.044	-0.117 ± 0.033
UGAGCU	0.136 ± 0.16	1.918 ± 0.018	1.904 ± 0.017	-0.0419 ± 0.064
GGAGGA	-0.168 ± 0.034	1.934 ± 0.0025	1.64 ± 0.078	0.231 ± 0.0056
UGAGGA	0.402 ± 0.033	1.885 ± 0.015	1.5 ± 0.056	0.633 ± 0.061
AGAGGA	0.5707 ± 0.0052	1.892 ± 0.016	1.6297 ± 0.00023	0.701 ± 0.028
CGAGGG	-0.0981 ± 0.041	1.8 ± 0.077	1.3 ± 0.047	0.0226 ± 0.19
CGAGGU	0.491 ± 0.077	1.96 ± 0.027	1.86 ± 0.019	0.625 ± 0.12
GGAGGU	0.54 ± 0.019	1.923 ± 0.013	1.779 ± 0.01	0.48 ± 0.021
AGAGGU	0.557 ± 0.061	1.9 ± 0.035	1.52 ± 0.032	0.802 ± 0.07
AGAGUA	0.5286 ± 0.0017	1.892 ± 0.0036	1.7 ± 0.034	0.675 ± 0.034
CGAGUC	0.0141 ± 0.11	1.958 ± 0.016	1.91 ± 0.094	0.106 ± 0.053
GGAGUC	0.764 ± 0.047	1.93 ± 0.042	1.885 ± 0.014	0.567 ± 0.047
UGAGUC	0.177 ± 0.08	1.99 ± 0.004	1.97 ± 0.025	-0.0516 ± 0.012
GGAGUG	0.301 ± 0.025	1.85 ± 0.027	1.413 ± 0.014	0.7 ± 0.032

Variant	FACS-Seq fitted mean (log10) [1]	normalized RNA/DNA level with ligand (log10) [2]	normalized RNA/DNA level without ligand (log10) [3]	FACS-Seq fitted mean (log10) [4]
UGAGUG	0.274 ± 0.026	1.9 ± 0.0079	1.64 ± 0.047	0.263 ± 0.019
CGAGUU	0.866 ± 0.02	2 ± 0.039	1.834 ± 0.015	0.833 ± 0.11
CGAUAA	0.668 ± 0.13	1.86 ± 0.047	1.57 ± 0.022	0.637 ± 0.12
GGAUAA	0.5354 ± 0.0025	1.9 ± 0.025	1.74 ± 0.024	0.552 ± 0.016
AGAUAA	0.265 ± 0.036	1.88 ± 0.022	1.75 ± 0.042	-0.0706 ± 0.047
CGAUAC	-0.0585 ± 0.029	1.894 ± 0.0067	1.69 ± 0.019	0.176 ± 0.056
GGAUAC	0.616 ± 0.019	1.93 ± 0.026	1.73 ± 0.042	0.623 ± 0.084
AGAUAC	0.757 ± 0.025	1.91 ± 0.052	1.74 ± 0.029	0.699 ± 0.065
CGAUAG	0.613 ± 0.0027	1.86 ± 0.12	1.7 ± 0.063	0.639 ± 0.052
GGAUAG	0.188 ± 0.013	1.83 ± 0.028	1.39 ± 0.049	0.508 ± 0.041
UGAUAU	0.0888 ± 0.12	1.96 ± 0.028	1.776 ± 0.016	0.0923 ± 0.28
GGAUCG	0.142 ± 0.037	1.95 ± 0.053	1.6404 ± 0.0014	0.517 ± 0.05
UGAUCG	0.52543 ± 0.00029	1.93 ± 0.02	1.81 ± 0.025	0.589 ± 0.045
GGAUGA	0.427 ± 0.085	1.89 ± 0.035	1.618 ± 0.0099	0.633 ± 0.029
UGAUGA	0.599 ± 0.053	1.906 ± 0.0054	1.58 ± 0.035	0.575 ± 0.14
AGAUGA	0.409 ± 0.022	1.93 ± 0.05	1.65 ± 0.034	0.591 ± 0.025
GGAUGC	-0.0215 ± 0.024	1.85 ± 0.066	1.47 ± 0.075	0.483 ± 0.029
CGAUGG	0.217 ± 0.024	1.89 ± 0.029	1.42 ± 0.087	0.628 ± 0.045
GGAUGG	0.131 ± 0.02	1.85 ± 0.027	1.33 ± 0.034	0.472 ± 0.035
AGAUGG	-0.23 ± 0.04	1.84 ± 0.035	1.36 ± 0.019	0.0811 ± 0.0062
AGAUGU	0.466 ± 0.021	1.9 ± 0.037	1.56 ± 0.031	0.748 ± 0.053
CGAUUA	0.312 ± 0.038	1.9239 ± 0.001	1.64 ± 0.034	0.569 ± 0.13
CGAUUC	0.279 ± 0.048	1.976 ± 0.0063	1.89 ± 0.02	0.313 ± 0.0095
UGAUUC	0.59 ± 0.061	1.993 ± 0.0057	1.977 ± 0.011	0.627 ± 0.06
